T1: AGT (alanine:glyoxylate aminotransferase 1), AGT WT (Homo sapiens, UniProt P21549)
T1 construct: gene AGXT; apo-form prepared with L-alanine; dimer
T1 sequence (P21549 1-392): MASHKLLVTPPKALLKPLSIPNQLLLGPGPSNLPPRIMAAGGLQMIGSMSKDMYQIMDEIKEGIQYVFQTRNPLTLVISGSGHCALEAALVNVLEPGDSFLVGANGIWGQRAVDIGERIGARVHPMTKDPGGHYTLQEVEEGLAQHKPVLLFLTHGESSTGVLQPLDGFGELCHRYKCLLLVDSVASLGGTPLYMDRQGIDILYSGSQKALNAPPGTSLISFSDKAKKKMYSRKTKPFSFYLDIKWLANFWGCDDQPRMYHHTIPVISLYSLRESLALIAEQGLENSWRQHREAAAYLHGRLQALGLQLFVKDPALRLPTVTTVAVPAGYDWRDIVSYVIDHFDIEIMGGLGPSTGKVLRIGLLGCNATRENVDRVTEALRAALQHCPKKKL


biological target: T1, AGT (alanine:glyoxylate aminotransferase 1), AGT WT; assay: absorption and near-UV/visible CD after L-alanine; 30-kDa filtration for released PMP; type: biochemical; settings: 20 uM holo-AGT, 200 mM L-alanine, 25 C, HEPES 20 mM, NaCl 200 mM, pH 7.4

Row | Molecule | absorption and near-UV/visible CD after L-alanine; 30-kDa filtration for release
1 | Cc1ncc(COP(=O)(O)O)c(CN)c1O [PMP] | the CD signal associated with PMP formation, clearly present in S81 and A81 sets

Biological target: the molecule itself
Assay: dynamic light scattering; 10 µM AGT as purified, 25 °C, 20 mM HEPES (sodium salt), 200 mM NaCl, pH 7.4; hydrodynamic radius assuming spherical particles (Stokes-Einstein)
Settings: not given

Row | Molecule | stoichiometry N
2 | Alanine:glyoxylate aminotransferase (AGT) WT (enzyme, human, UniProt P21549 1-392, looked up, also called wild-type; major allele) MASHKLLVTPPKALLKPLSIPNQLLLGPGPSNLPPRIMAAGGLQMIGSMSKDMYQIMDEIKEGIQYVFQTRNPLTLVISGSGHCALEAALVNVLEPGDSFLVGANGIWGQRAVDIGERIGARVHPMTKDPGGHYTLQEVEEGLAQHKPVLLFLTHGESSTGVLQPLDGFGELCHRYKCLLLVDSVASLGGTPLYMDRQGIDILYSGSQKALNAPPGTSLISFSDKAKKKMYSRKTKPFSFYLDIKWLANFWGCDDQPRMYHHTIPVISLYSLRESLALIAEQGLENSWRQHREAAAYLHGRLQALGLQLFVKDPALRLPTVTTVAVPAGYDWRDIVSYVIDHFDIEIMGGLGPSTGKVLRIGLLGCNATRENVDRVTEALRAALQHCPKKKL | 2
3 | AGT WT p.S81A (enzyme, human, UniProt P21549 1-392, looked up, Alanine:glyoxylate aminotransferase (AGT), human, wild-type background with S81A; site-directed mutant of the pCOLDII construct of m1; also called set A81) MASHKLLVTPPKALLKPLSIPNQLLLGPGPSNLPPRIMAAGGLQMIGSMSKDMYQIMDEIKEGIQYVFQTRNPLTLVISGAGHCALEAALVNVLEPGDSFLVGANGIWGQRAVDIGERIGARVHPMTKDPGGHYTLQEVEEGLAQHKPVLLFLTHGESSTGVLQPLDGFGELCHRYKCLLLVDSVASLGGTPLYMDRQGIDILYSGSQKALNAPPGTSLISFSDKAKKKMYSRKTKPFSFYLDIKWLANFWGCDDQPRMYHHTIPVISLYSLRESLALIAEQGLENSWRQHREAAAYLHGRLQALGLQLFVKDPALRLPTVTTVAVPAGYDWRDIVSYVIDHFDIEIMGGLGPSTGKVLRIGLLGCNATRENVDRVTEALRAALQHCPKKKL | 2
4 | AGT LM-p.I244T p.S81D (enzyme, human, UniProt P21549 1-392, looked up, Alanine:glyoxylate aminotransferase (AGT), human, LM-p.I244T background with the phosphomimetic S81D; site-directed mutant of the pCOLDII construct of m4; also called set D81) MASHKLLVTPLKALLKPLSIPNQLLLGPGPSNLPPRIMAAGGLQMIGSMSKDMYQIMDEIKEGIQYVFQTRNPLTLVISGDGHCALEAALVNVLEPGDSFLVGANGIWGQRAVDIGERIGARVHPMTKDPGGHYTLQEVEEGLAQHKPVLLFLTHGESSTGVLQPLDGFGELCHRYKCLLLVDSVASLGGTPLYMDRQGIDILYSGSQKALNAPPGTSLISFSDKAKKKMYSRKTKPFSFYLDTKWLANFWGCDDQPRMYHHTIPVISLYSLRESLALIAEQGLENSWRQHREAAAYLHGRLQALGLQLFVKDPALRLPTVTTVAVPAGYDWRDIVSYVMDHFDIEIMGGLGPSTGKVLRIGLLGCNATRENVDRVTEALRAALQHCPKKKL | 2
5 | AGT LM-p.I244T p.S81A (enzyme, human, UniProt P21549 1-392, looked up, Alanine:glyoxylate aminotransferase (AGT), human, LM-p.I244T background with S81A; site-directed mutant of the pCOLDII construct of m4; also called set A81) MASHKLLVTPLKALLKPLSIPNQLLLGPGPSNLPPRIMAAGGLQMIGSMSKDMYQIMDEIKEGIQYVFQTRNPLTLVISGAGHCALEAALVNVLEPGDSFLVGANGIWGQRAVDIGERIGARVHPMTKDPGGHYTLQEVEEGLAQHKPVLLFLTHGESSTGVLQPLDGFGELCHRYKCLLLVDSVASLGGTPLYMDRQGIDILYSGSQKALNAPPGTSLISFSDKAKKKMYSRKTKPFSFYLDTKWLANFWGCDDQPRMYHHTIPVISLYSLRESLALIAEQGLENSWRQHREAAAYLHGRLQALGLQLFVKDPALRLPTVTTVAVPAGYDWRDIVSYVMDHFDIEIMGGLGPSTGKVLRIGLLGCNATRENVDRVTEALRAALQHCPKKKL | 2
6 | AGT WT p.S81D (enzyme, human, UniProt P21549 1-392, looked up, Alanine:glyoxylate aminotransferase (AGT), human, wild-type background with the phosphomimetic S81D; site-directed mutant of the pCOLDII construct of m1; also called set D81) MASHKLLVTPPKALLKPLSIPNQLLLGPGPSNLPPRIMAAGGLQMIGSMSKDMYQIMDEIKEGIQYVFQTRNPLTLVISGDGHCALEAALVNVLEPGDSFLVGANGIWGQRAVDIGERIGARVHPMTKDPGGHYTLQEVEEGLAQHKPVLLFLTHGESSTGVLQPLDGFGELCHRYKCLLLVDSVASLGGTPLYMDRQGIDILYSGSQKALNAPPGTSLISFSDKAKKKMYSRKTKPFSFYLDIKWLANFWGCDDQPRMYHHTIPVISLYSLRESLALIAEQGLENSWRQHREAAAYLHGRLQALGLQLFVKDPALRLPTVTTVAVPAGYDWRDIVSYVIDHFDIEIMGGLGPSTGKVLRIGLLGCNATRENVDRVTEALRAALQHCPKKKL | 2
7 | AGT LM-p.G170R (enzyme, human, UniProt P21549 1-392, looked up, Alanine:glyoxylate aminotransferase (AGT), human, minor allele (LM) with the PH1-associated variant p.G170R; also called set S81) MASHKLLVTPLKALLKPLSIPNQLLLGPGPSNLPPRIMAAGGLQMIGSMSKDMYQIMDEIKEGIQYVFQTRNPLTLVISGSGHCALEAALVNVLEPGDSFLVGANGIWGQRAVDIGERIGARVHPMTKDPGGHYTLQEVEEGLAQHKPVLLFLTHGESSTGVLQPLDGFRELCHRYKCLLLVDSVASLGGTPLYMDRQGIDILYSGSQKALNAPPGTSLISFSDKAKKKMYSRKTKPFSFYLDIKWLANFWGCDDQPRMYHHTIPVISLYSLRESLALIAEQGLENSWRQHREAAAYLHGRLQALGLQLFVKDPALRLPTVTTVAVPAGYDWRDIVSYVMDHFDIEIMGGLGPSTGKVLRIGLLGCNATRENVDRVTEALRAALQHCPKKKL | 2
8 | AGT LM-p.G170R p.S81A (enzyme, human, UniProt P21549 1-392, looked up, Alanine:glyoxylate aminotransferase (AGT), human, LM-p.G170R background with S81A; site-directed mutant of the pCOLDII construct of m3; also called set A81) MASHKLLVTPLKALLKPLSIPNQLLLGPGPSNLPPRIMAAGGLQMIGSMSKDMYQIMDEIKEGIQYVFQTRNPLTLVISGAGHCALEAALVNVLEPGDSFLVGANGIWGQRAVDIGERIGARVHPMTKDPGGHYTLQEVEEGLAQHKPVLLFLTHGESSTGVLQPLDGFRELCHRYKCLLLVDSVASLGGTPLYMDRQGIDILYSGSQKALNAPPGTSLISFSDKAKKKMYSRKTKPFSFYLDIKWLANFWGCDDQPRMYHHTIPVISLYSLRESLALIAEQGLENSWRQHREAAAYLHGRLQALGLQLFVKDPALRLPTVTTVAVPAGYDWRDIVSYVMDHFDIEIMGGLGPSTGKVLRIGLLGCNATRENVDRVTEALRAALQHCPKKKL | 2
9 | AGT LM (minor allele, p.P11L and p.I340M) (enzyme, human, UniProt P21549 1-392, looked up, Alanine:glyoxylate aminotransferase (AGT), human, common polymorphic minor allele (LM); also called set S81) MASHKLLVTPLKALLKPLSIPNQLLLGPGPSNLPPRIMAAGGLQMIGSMSKDMYQIMDEIKEGIQYVFQTRNPLTLVISGSGHCALEAALVNVLEPGDSFLVGANGIWGQRAVDIGERIGARVHPMTKDPGGHYTLQEVEEGLAQHKPVLLFLTHGESSTGVLQPLDGFGELCHRYKCLLLVDSVASLGGTPLYMDRQGIDILYSGSQKALNAPPGTSLISFSDKAKKKMYSRKTKPFSFYLDIKWLANFWGCDDQPRMYHHTIPVISLYSLRESLALIAEQGLENSWRQHREAAAYLHGRLQALGLQLFVKDPALRLPTVTTVAVPAGYDWRDIVSYVMDHFDIEIMGGLGPSTGKVLRIGLLGCNATRENVDRVTEALRAALQHCPKKKL | 2
10 | AGT LM-p.G170R p.S81D (enzyme, human, UniProt P21549 1-392, looked up, Alanine:glyoxylate aminotransferase (AGT), human, LM-p.G170R background with the phosphomimetic S81D; site-directed mutant of the pCOLDII construct of m3; also called set D81) MASHKLLVTPLKALLKPLSIPNQLLLGPGPSNLPPRIMAAGGLQMIGSMSKDMYQIMDEIKEGIQYVFQTRNPLTLVISGDGHCALEAALVNVLEPGDSFLVGANGIWGQRAVDIGERIGARVHPMTKDPGGHYTLQEVEEGLAQHKPVLLFLTHGESSTGVLQPLDGFRELCHRYKCLLLVDSVASLGGTPLYMDRQGIDILYSGSQKALNAPPGTSLISFSDKAKKKMYSRKTKPFSFYLDIKWLANFWGCDDQPRMYHHTIPVISLYSLRESLALIAEQGLENSWRQHREAAAYLHGRLQALGLQLFVKDPALRLPTVTTVAVPAGYDWRDIVSYVMDHFDIEIMGGLGPSTGKVLRIGLLGCNATRENVDRVTEALRAALQHCPKKKL | 2
11 | AGT LM-p.I244T (enzyme, human, UniProt P21549 1-392, looked up, Alanine:glyoxylate aminotransferase (AGT), human, minor allele (LM) with the PH1-associated variant p.I244T; also called set S81) MASHKLLVTPLKALLKPLSIPNQLLLGPGPSNLPPRIMAAGGLQMIGSMSKDMYQIMDEIKEGIQYVFQTRNPLTLVISGSGHCALEAALVNVLEPGDSFLVGANGIWGQRAVDIGERIGARVHPMTKDPGGHYTLQEVEEGLAQHKPVLLFLTHGESSTGVLQPLDGFGELCHRYKCLLLVDSVASLGGTPLYMDRQGIDILYSGSQKALNAPPGTSLISFSDKAKKKMYSRKTKPFSFYLDTKWLANFWGCDDQPRMYHHTIPVISLYSLRESLALIAEQGLENSWRQHREAAAYLHGRLQALGLQLFVKDPALRLPTVTTVAVPAGYDWRDIVSYVMDHFDIEIMGGLGPSTGKVLRIGLLGCNATRENVDRVTEALRAALQHCPKKKL | 2
12 | AGT LM p.S81D (enzyme, human, UniProt P21549 1-392, looked up, Alanine:glyoxylate aminotransferase (AGT), human, minor allele (LM) background with the phosphomimetic S81D; site-directed mutant of the pCOLDII construct of m2; also called set D81) MASHKLLVTPLKALLKPLSIPNQLLLGPGPSNLPPRIMAAGGLQMIGSMSKDMYQIMDEIKEGIQYVFQTRNPLTLVISGDGHCALEAALVNVLEPGDSFLVGANGIWGQRAVDIGERIGARVHPMTKDPGGHYTLQEVEEGLAQHKPVLLFLTHGESSTGVLQPLDGFGELCHRYKCLLLVDSVASLGGTPLYMDRQGIDILYSGSQKALNAPPGTSLISFSDKAKKKMYSRKTKPFSFYLDIKWLANFWGCDDQPRMYHHTIPVISLYSLRESLALIAEQGLENSWRQHREAAAYLHGRLQALGLQLFVKDPALRLPTVTTVAVPAGYDWRDIVSYVMDHFDIEIMGGLGPSTGKVLRIGLLGCNATRENVDRVTEALRAALQHCPKKKL | 2
13 | AGT LM p.S81A (enzyme, human, UniProt P21549 1-392, looked up, Alanine:glyoxylate aminotransferase (AGT), human, minor allele (LM) background with S81A; site-directed mutant of the pCOLDII construct of m2; also called set A81) MASHKLLVTPLKALLKPLSIPNQLLLGPGPSNLPPRIMAAGGLQMIGSMSKDMYQIMDEIKEGIQYVFQTRNPLTLVISGAGHCALEAALVNVLEPGDSFLVGANGIWGQRAVDIGERIGARVHPMTKDPGGHYTLQEVEEGLAQHKPVLLFLTHGESSTGVLQPLDGFGELCHRYKCLLLVDSVASLGGTPLYMDRQGIDILYSGSQKALNAPPGTSLISFSDKAKKKMYSRKTKPFSFYLDIKWLANFWGCDDQPRMYHHTIPVISLYSLRESLALIAEQGLENSWRQHREAAAYLHGRLQALGLQLFVKDPALRLPTVTTVAVPAGYDWRDIVSYVMDHFDIEIMGGLGPSTGKVLRIGLLGCNATRENVDRVTEALRAALQHCPKKKL | 2

From PMC13079258, “Impact of Ser81 phosphorylation on alanine: glyoxylate aminotransferase associated with Primary hyperoxaluria type I” (Molecular Biomedicine, 2026)
